# Measured values published in publication PMC9482650, “Quantitative fragmentomics allow affinity mapping of interactomes” (Nature Communications, 2022).
# B1: SLC15A5, A6NIM6 (peptide)
# chain: SSIDLWETAL
# B2: FZD7, O75084 (peptide)
# chain: SHSSKGETAV
# B3: NET1, Q7Z628 (peptide)
# chain: SGGKRKETLV
# B4: HPV82-E6, Q9IR59 (peptide)
# chain: PPRQRSETQV
# Biological target: LIMK1, P53667
# Test: holdup assay
# Parameters: key: below the threshold = too weak to quantify, mostly under pKd 3.1 to 4
# Conditions: plain residues with an end cap or a label only (N-terminal biotin on a linker: ttds)
# Sequence of LIMK1, P53667 (P53667 155-268): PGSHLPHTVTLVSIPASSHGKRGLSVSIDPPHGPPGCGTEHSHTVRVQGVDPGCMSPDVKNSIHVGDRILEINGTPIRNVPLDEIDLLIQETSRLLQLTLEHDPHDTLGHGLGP
row,Binder,pKd
1,B1,below the threshold
2,B2,below the threshold

# Biological target: T1, LNX2_1, Q8N448
# T1 sequence (Q8N448 228-328, limits assumed, looked up): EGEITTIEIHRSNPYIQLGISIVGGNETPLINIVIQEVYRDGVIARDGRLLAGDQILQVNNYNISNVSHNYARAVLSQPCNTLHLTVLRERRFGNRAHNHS
# Test: holdup assay
# Parameters: key: below the threshold = too weak to quantify, mostly under pKd 3.1 to 4
# Conditions: plain residues with an end cap or a label only (N-terminal biotin on a linker: ttds)
row,Binder,pKd
1,B3,below the threshold

# Biological target: O00233
# Test: holdup assay
# Parameters: key: below the threshold = too weak to quantify, mostly under pKd 3.1 to 4
# Conditions: plain residues with an end cap or a label only (N-terminal biotin on a linker: ttds)
row,Binder,pKd
1,B1,below the threshold
2,B4,below the threshold
3,B2,below the threshold

# Biological target: O00560
# Test: holdup assay
# Parameters: key: below the threshold = too weak to quantify, mostly under pKd 3.1 to 4
# Conditions: plain residues with an end cap or a label only (N-terminal biotin on a linker: ttds)
row,Binder,pKd
1,B1,below the threshold
2,B4,below the threshold
3,B2,below the threshold

# Biological target: O15021
# Test: holdup assay
# Parameters: key: below the threshold = too weak to quantify, mostly under pKd 3.1 to 4
# Conditions: plain residues with an end cap or a label only (N-terminal biotin on a linker: ttds)
row,Binder,pKd
1,B1,below the threshold
2,B4,below the threshold
3,B2,below the threshold

# Biological target: O43166
# Test: holdup assay
# Parameters: key: below the threshold = too weak to quantify, mostly under pKd 3.1 to 4
# Conditions: plain residues with an end cap or a label only (N-terminal biotin on a linker: ttds)
row,Binder,pKd
1,B1,below the threshold
2,B4,below the threshold
3,B2,below the threshold

# Biological target: O60759
# Test: holdup assay
# Parameters: key: below the threshold = too weak to quantify, mostly under pKd 3.1 to 4
# Conditions: plain residues with an end cap or a label only (N-terminal biotin on a linker: ttds)
row,Binder,pKd
1,B1,below the threshold
2,B4,below the threshold
3,B2,below the threshold

# Biological target: O75970
# Test: holdup assay
# Parameters: key: below the threshold = too weak to quantify, mostly under pKd 3.1 to 4
# Conditions: plain residues with an end cap or a label only (N-terminal biotin on a linker: ttds)
row,Binder,pKd
1,B1,below the threshold
2,B4,below the threshold
3,B2,below the threshold

# Biological target: PTPN13_2, Q12923
# Test: holdup assay
# Parameters: key: below the threshold = too weak to quantify, mostly under pKd 3.1 to 4
# Conditions: plain residues with an end cap or a label only (N-terminal biotin on a linker: ttds)
# Sequence of PTPN13_2, Q12923 (Q12923 1363-1462): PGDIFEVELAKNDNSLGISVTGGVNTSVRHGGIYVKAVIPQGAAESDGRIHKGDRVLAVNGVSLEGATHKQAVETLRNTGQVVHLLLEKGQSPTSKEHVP
row,Binder,pKd
1,B4,below the threshold
2,B2,below the threshold
3,B3,below the threshold

# Biological target: Q12923
# Test: holdup assay
# Parameters: key: below the threshold = too weak to quantify, mostly under pKd 3.1 to 4
# Conditions: plain residues with an end cap or a label only (N-terminal biotin on a linker: ttds)
row,Binder,pKd
1,B1,below the threshold
2,B4,below the threshold
3,B2,below the threshold

# Biological target: Q5TCQ9
# Test: holdup assay
# Parameters: key: below the threshold = too weak to quantify, mostly under pKd 3.1 to 4
# Conditions: plain residues with an end cap or a label only (N-terminal biotin on a linker: ttds)
row,Binder,pKd
1,B1,below the threshold
2,B4,below the threshold
3,B2,below the threshold

# Biological target: Q6ZWJ1
# Test: holdup assay
# Parameters: key: below the threshold = too weak to quantify, mostly under pKd 3.1 to 4
# Conditions: plain residues with an end cap or a label only (N-terminal biotin on a linker: ttds)
row,Binder,pKd
1,B1,below the threshold
2,B4,below the threshold
3,B2,below the threshold

# Biological target: Q70Z35
# Test: holdup assay
# Parameters: key: below the threshold = too weak to quantify, mostly under pKd 3.1 to 4
# Conditions: plain residues with an end cap or a label only (N-terminal biotin on a linker: ttds)
row,Binder,pKd
1,B1,below the threshold
2,B4,below the threshold
3,B2,below the threshold

# Biological target: Q8IUC4
# Test: holdup assay
# Parameters: key: below the threshold = too weak to quantify, mostly under pKd 3.1 to 4
# Conditions: plain residues with an end cap or a label only (N-terminal biotin on a linker: ttds)
row,Binder,pKd
1,B1,below the threshold
2,B4,below the threshold
3,B2,below the threshold

# Biological target: Q8TB45
# Test: holdup assay
# Parameters: key: below the threshold = too weak to quantify, mostly under pKd 3.1 to 4
# Conditions: plain residues with an end cap or a label only (N-terminal biotin on a linker: ttds)
row,Binder,pKd
1,B1,below the threshold
2,B4,below the threshold
3,B2,below the threshold

# Biological target: Q8TDM6
# Test: holdup assay
# Parameters: key: below the threshold = too weak to quantify, mostly under pKd 3.1 to 4
# Conditions: plain residues with an end cap or a label only (N-terminal biotin on a linker: ttds)
row,Binder,pKd
1,B1,below the threshold
2,B4,below the threshold
3,B2,below the threshold

# Biological target: Q8TEW0
# Test: holdup assay
# Parameters: key: below the threshold = too weak to quantify, mostly under pKd 3.1 to 4
# Conditions: plain residues with an end cap or a label only (N-terminal biotin on a linker: ttds)
row,Binder,pKd
1,B1,below the threshold
2,B4,below the threshold
3,B2,below the threshold

# Biological target: Q92614
# Test: holdup assay
# Parameters: key: below the threshold = too weak to quantify, mostly under pKd 3.1 to 4
# Conditions: plain residues with an end cap or a label only (N-terminal biotin on a linker: ttds)
row,Binder,pKd
1,B1,below the threshold
2,B4,below the threshold
3,B2,below the threshold

# Biological target: Q96FS4
# Test: holdup assay
# Parameters: key: below the threshold = too weak to quantify, mostly under pKd 3.1 to 4
# Conditions: plain residues with an end cap or a label only (N-terminal biotin on a linker: ttds)
row,Binder,pKd
1,B1,below the threshold
2,B4,below the threshold
3,B2,below the threshold

# Biological target: Q96HC4
# Test: holdup assay
# Parameters: key: below the threshold = too weak to quantify, mostly under pKd 3.1 to 4
# Conditions: plain residues with an end cap or a label only (N-terminal biotin on a linker: ttds)
row,Binder,pKd
1,B1,below the threshold
2,B4,below the threshold
3,B2,below the threshold

# Biological target: Q96JB8
# Test: holdup assay
# Parameters: key: below the threshold = too weak to quantify, mostly under pKd 3.1 to 4
# Conditions: plain residues with an end cap or a label only (N-terminal biotin on a linker: ttds)
row,Binder,pKd
1,B1,below the threshold
2,B4,below the threshold
3,B2,below the threshold

# Biological target: Q96JY6
# Test: holdup assay
# Parameters: key: below the threshold = too weak to quantify, mostly under pKd 3.1 to 4
# Conditions: plain residues with an end cap or a label only (N-terminal biotin on a linker: ttds)
row,Binder,pKd
1,B1,below the threshold
2,B4,below the threshold
3,B2,below the threshold

# Biological target: Q96SB3
# Test: holdup assay
# Parameters: key: below the threshold = too weak to quantify, mostly under pKd 3.1 to 4
# Conditions: plain residues with an end cap or a label only (N-terminal biotin on a linker: ttds)
row,Binder,pKd
1,B1,below the threshold
2,B4,below the threshold
3,B2,below the threshold

# Biological target: Q9C0E4
# Test: holdup assay
# Parameters: key: below the threshold = too weak to quantify, mostly under pKd 3.1 to 4
# Conditions: plain residues with an end cap or a label only (N-terminal biotin on a linker: ttds)
row,Binder,pKd
1,B1,below the threshold
2,B4,below the threshold
3,B2,below the threshold

# Biological target: Q9NPB6
# Test: holdup assay
# Parameters: key: below the threshold = too weak to quantify, mostly under pKd 3.1 to 4
# Conditions: plain residues with an end cap or a label only (N-terminal biotin on a linker: ttds)
row,Binder,pKd
1,B1,below the threshold
2,B4,below the threshold
3,B2,below the threshold

# Biological target: Q9NR12
# Test: holdup assay
# Parameters: key: below the threshold = too weak to quantify, mostly under pKd 3.1 to 4
# Conditions: plain residues with an end cap or a label only (N-terminal biotin on a linker: ttds)
row,Binder,pKd
1,B1,below the threshold
2,B4,below the threshold
3,B2,below the threshold

# Biological target: Q9P227
# Test: holdup assay
# Parameters: key: below the threshold = too weak to quantify, mostly under pKd 3.1 to 4
# Conditions: plain residues with an end cap or a label only (N-terminal biotin on a linker: ttds)
row,Binder,pKd
1,B1,below the threshold
2,B4,below the threshold
3,B2,below the threshold

# Biological target: Q9UDY2
# Test: holdup assay
# Parameters: key: below the threshold = too weak to quantify, mostly under pKd 3.1 to 4
# Conditions: plain residues with an end cap or a label only (N-terminal biotin on a linker: ttds)
row,Binder,pKd
1,B1,below the threshold
2,B4,below the threshold
3,B2,below the threshold

# Biological target: Q9ULJ8
# Test: holdup assay
# Parameters: key: below the threshold = too weak to quantify, mostly under pKd 3.1 to 4
# Conditions: plain residues with an end cap or a label only (N-terminal biotin on a linker: ttds)
row,Binder,pKd
1,B1,below the threshold
2,B4,below the threshold
3,B2,below the threshold

# Biological target: Q9UMS6
# Test: holdup assay
# Parameters: key: below the threshold = too weak to quantify, mostly under pKd 3.1 to 4
# Conditions: plain residues with an end cap or a label only (N-terminal biotin on a linker: ttds)
row,Binder,pKd
1,B1,below the threshold
2,B4,below the threshold
3,B2,below the threshold

# Biological target: Q9Y3R0
# Test: holdup assay
# Parameters: key: below the threshold = too weak to quantify, mostly under pKd 3.1 to 4
# Conditions: plain residues with an end cap or a label only (N-terminal biotin on a linker: ttds)
row,Binder,pKd
1,B1,below the threshold
2,B4,below the threshold
3,B2,below the threshold
